Earlier results as cited in publication PMC7168109.

Target: T1, PTK7 (tyrosine protein kinase 7, CCK4) on CCRF-CEM or Jurkat cells (UniProt Q13308)
T1 sequence: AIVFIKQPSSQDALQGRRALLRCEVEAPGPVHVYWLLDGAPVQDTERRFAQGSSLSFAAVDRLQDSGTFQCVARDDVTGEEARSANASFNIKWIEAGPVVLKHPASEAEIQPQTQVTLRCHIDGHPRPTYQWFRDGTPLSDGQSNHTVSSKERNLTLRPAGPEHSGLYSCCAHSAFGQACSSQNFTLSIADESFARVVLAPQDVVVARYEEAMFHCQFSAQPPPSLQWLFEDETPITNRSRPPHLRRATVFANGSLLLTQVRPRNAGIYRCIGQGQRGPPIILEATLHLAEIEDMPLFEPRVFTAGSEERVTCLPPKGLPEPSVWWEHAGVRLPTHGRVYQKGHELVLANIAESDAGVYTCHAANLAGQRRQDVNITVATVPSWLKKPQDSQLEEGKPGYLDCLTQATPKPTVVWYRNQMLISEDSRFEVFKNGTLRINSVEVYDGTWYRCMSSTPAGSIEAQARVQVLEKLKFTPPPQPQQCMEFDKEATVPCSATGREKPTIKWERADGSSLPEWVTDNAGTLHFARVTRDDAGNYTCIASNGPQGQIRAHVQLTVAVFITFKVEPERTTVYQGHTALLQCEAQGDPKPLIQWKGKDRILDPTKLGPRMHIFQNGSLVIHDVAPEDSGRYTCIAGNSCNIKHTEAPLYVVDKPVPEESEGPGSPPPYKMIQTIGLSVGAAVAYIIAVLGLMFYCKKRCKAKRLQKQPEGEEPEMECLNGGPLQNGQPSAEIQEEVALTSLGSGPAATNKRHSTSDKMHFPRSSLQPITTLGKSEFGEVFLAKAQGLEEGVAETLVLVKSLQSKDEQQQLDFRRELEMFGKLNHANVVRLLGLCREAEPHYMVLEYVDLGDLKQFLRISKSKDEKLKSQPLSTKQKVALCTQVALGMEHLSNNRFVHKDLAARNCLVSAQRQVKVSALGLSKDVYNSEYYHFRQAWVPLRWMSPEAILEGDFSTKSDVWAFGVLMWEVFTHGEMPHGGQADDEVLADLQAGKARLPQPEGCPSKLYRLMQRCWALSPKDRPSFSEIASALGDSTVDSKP
Assay: cited, method not stated
Details: Flow cytometry on whole cells: 200 nM aptamer, 4 °C, 30 min in the dark, cells washed with PBS before incubation, three washes after; binding buffer and pH not …

Sgc8 (as cited)
Kd: 0.8 nM
